Ends that are not written are not given here.
Biological target: T1, CRF2R
T1 sequence (Q13324 whole entry, species assumed, looked up): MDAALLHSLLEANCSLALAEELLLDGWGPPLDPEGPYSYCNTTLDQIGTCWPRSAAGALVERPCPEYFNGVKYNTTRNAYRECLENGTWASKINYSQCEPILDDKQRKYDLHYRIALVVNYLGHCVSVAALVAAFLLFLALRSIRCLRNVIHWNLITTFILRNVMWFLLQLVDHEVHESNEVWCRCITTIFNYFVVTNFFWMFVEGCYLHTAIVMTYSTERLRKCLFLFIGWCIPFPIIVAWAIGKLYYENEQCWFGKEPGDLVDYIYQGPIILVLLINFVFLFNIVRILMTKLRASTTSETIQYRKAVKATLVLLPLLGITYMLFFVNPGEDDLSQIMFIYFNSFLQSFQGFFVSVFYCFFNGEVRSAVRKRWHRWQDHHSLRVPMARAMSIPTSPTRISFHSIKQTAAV
Test: cell-based or functional assay

CRF2R (Emax %): 100%
Binder: IVLSLDVPIGLLQELLEMARAEQLAQQAHSNRKLMEII-NH2 [SEQ ID NO 1]
